Consider 5 molecules from publication PMC3426363 (Pharmaceutical research, 2011).

In one data set the target is T1, UGT1A10 (Homo sapiens, UniProt Q9HAW8).
T1 sequence (Q9HAW8 26-530): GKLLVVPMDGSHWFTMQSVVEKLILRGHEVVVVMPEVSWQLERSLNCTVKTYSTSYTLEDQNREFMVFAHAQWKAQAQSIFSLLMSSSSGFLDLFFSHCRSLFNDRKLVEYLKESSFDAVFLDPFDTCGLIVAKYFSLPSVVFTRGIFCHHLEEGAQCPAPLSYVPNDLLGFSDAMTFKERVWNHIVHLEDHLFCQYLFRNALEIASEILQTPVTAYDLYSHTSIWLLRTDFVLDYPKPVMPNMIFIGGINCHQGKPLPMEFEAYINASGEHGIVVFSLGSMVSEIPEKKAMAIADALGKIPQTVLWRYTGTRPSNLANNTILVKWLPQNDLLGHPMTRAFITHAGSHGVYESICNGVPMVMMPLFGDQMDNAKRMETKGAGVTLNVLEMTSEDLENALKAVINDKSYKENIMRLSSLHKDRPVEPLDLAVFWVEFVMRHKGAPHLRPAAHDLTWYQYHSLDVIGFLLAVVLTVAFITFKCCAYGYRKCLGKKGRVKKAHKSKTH
The data set is described as follows: UGT1A10 glucuronidation kinetics of flavonols. Conditions: substrate inhibition constant. Type of data set: in vitro ADME.

The target of data set [1] is T2, UGT1A1 (Homo sapiens, UniProt P22309).
T2 sequence (P22309 26-533): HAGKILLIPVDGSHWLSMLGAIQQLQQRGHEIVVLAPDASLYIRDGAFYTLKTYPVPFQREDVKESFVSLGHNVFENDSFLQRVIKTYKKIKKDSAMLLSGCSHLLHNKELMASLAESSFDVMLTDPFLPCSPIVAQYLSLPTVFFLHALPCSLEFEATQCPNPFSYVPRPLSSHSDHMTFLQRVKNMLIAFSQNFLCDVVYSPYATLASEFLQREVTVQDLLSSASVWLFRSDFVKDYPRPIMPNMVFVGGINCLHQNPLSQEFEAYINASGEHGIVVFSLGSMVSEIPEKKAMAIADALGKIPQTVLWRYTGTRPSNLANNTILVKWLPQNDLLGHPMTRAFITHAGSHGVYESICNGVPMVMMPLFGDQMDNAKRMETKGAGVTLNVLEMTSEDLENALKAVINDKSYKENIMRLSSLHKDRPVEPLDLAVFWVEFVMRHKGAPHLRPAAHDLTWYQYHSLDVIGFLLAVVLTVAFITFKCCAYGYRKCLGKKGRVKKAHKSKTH
The data set is described as follows: UGT1A1 glucuronidation kinetics of flavonols. Type of data set: in vitro ADME. Conditions: formation of 7-O-glucuronide, substrate inhibition constant.

In the next data set the target is T3, UGT1A3 (Homo sapiens, UniProt P35503).
T3 sequence (P35503 29-534): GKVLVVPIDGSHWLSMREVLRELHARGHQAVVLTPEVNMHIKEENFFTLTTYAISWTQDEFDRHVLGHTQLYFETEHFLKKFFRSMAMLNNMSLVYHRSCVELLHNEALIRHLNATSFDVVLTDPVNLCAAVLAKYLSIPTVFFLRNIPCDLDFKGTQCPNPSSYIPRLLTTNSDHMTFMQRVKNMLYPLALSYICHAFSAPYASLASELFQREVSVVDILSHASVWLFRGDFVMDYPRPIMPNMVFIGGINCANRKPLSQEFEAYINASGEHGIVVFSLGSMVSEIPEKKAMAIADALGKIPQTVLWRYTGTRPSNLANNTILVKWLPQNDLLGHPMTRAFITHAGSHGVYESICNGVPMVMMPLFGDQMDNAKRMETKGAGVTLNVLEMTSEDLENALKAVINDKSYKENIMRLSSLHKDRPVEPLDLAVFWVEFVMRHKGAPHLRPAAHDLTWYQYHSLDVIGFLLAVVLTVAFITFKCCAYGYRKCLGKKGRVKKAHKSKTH
Description: UGT1A3 glucuronidation kinetics of flavonols. Type of data set: in vitro ADME. The note with it: formation of 7-O-glucuronide, substrate inhibition constant.

For data set [2], the target named is T2, UGT1A1. The note with it: cited from earlier work.
Substrate in data set [3]: O=c1c(O)c(-c2ccc(O)cc2)oc2cc(O)cc(O)c12
Description: UGT1A7 glucuronidation kinetics of flavonols. Type of data set: in vitro ADME, human. The note with it: other: UGT1A7, pH 6.5.

Substrate in data set [4]: O=c1c(O)c(-c2ccccc2)oc2cc(O)cc(O)c12
Description: UGT1A7 glucuronidation kinetics of flavonols. Type of data set: in vitro ADME, human. Conditions: other: UGT1A7, pH 6.5.

Substrate in data set [5]: O=c1c(O)c(-c2ccccc2)oc2cc(O)ccc12
The data set is described as follows: UGT1A7 glucuronidation kinetics of flavonols. The note with it: other: UGT1A7, pH 6.5. Type of data set: in vitro ADME, human.

Substrate in data set [6]: O=c1c(O)c(-c2ccc(O)cc2)oc2cc(O)cc(O)c12
Description: UGT1A1 glucuronidation kinetics of flavonols. Type of data set: in vitro ADME, human. The note with it: other: UGT1A1; formation of 7-O-glucuronide; pH 6.5.

Substrate in data set [7]: O=c1c(O)c(-c2ccccc2)oc2cc(O)cc(O)c12
Description: UGT1A1 glucuronidation kinetics of flavonols. Type of data set: in vitro ADME, human. Conditions: other: UGT1A1, pH 6.5.

Substrate in data set [8]: O=c1c(O)c(-c2ccccc2)oc2cc(O)ccc12
Description: UGT1A1 glucuronidation kinetics of flavonols. Type of data set: in vitro ADME, human. Conditions: other: UGT1A1, pH 6.5.

Substrate in data set [9]: O=c1c(O)c(-c2ccc(O)cc2)oc2cc(O)ccc12
Description: UGT1A1 glucuronidation kinetics of flavonols. Type of data set: in vitro ADME, human. Conditions: other: UGT1A1, pH 6.5.

Substrate in data set [10]: O=c1c(O)c(-c2ccc(O)cc2)oc2cc(O)cc(O)c12
Description: UGT1A3 glucuronidation kinetics of flavonols. The note with it: other: UGT1A3; formation of 7-O-glucuronide; pH 6.5. Type of data set: in vitro ADME, human.

Substrate in data set [11]: O=c1c(O)c(-c2ccccc2)oc2cc(O)cc(O)c12
Description: UGT1A3 glucuronidation kinetics of flavonols. Type of data set: in vitro ADME, human. The note with it: other: UGT1A3, pH 6.5.

Substrate in data set [12]: O=c1c(O)c(-c2ccccc2)oc2cc(O)ccc12
Description: UGT1A3 glucuronidation kinetics of flavonols. Type of data set: in vitro ADME, human. The note with it: other: UGT1A3, pH 6.5.

Take `O=c1c(O)c(-c2ccc(O)cc2)oc2cc(O)cc(O)c12` [3,5,7,4’QHF, 3,5,7,4’-tetrahydroxyflavone]: the Ks turned out to be 30.01 ± 8.00 µM at UGT1A10 (formation of 3-O-glucuronide), 51.37 ± 27.15 µM on UGT1A10 (formation of 7-O-glucuronide), 2.81 ± 0.67 µM on UGT1A1 [1] and 7.52 ± 9.58 µM on UGT1A3.

In the case of `C#C[C@]1(O)CC[C@H]2[C@@H]3CCc4cc(O)ccc4[C@H]3CC[C@@]21C` [ethinylestradiol], the Km at UGT1A1 [2] (reported value) is 49.8 µM. The Ks/Km ratio on UGT1A1 [2] (substrate inhibition at high concentrations of UDPGA) is recorded as 1.61.

B1: UGT1A7 (Homo sapiens) (protein)
chain: GKLLVVPMDGSHWFTMQSVVEKLILRGHEVVVVMPEVSWQLGRSLNCTVKTYSTSYTLEDQDREFMVFADARWTAPLRSAFSLLTSSSNGIFDLFFSNCRSLFNDRKLVEYLKESCFDAVFLDPFDACGLIVAKYFSLPSVVFARGIFCHYLEEGAQCPAPLSYVPRLLLGFSDAMTFKERVWNHIMHLEEHLFCPYFFKNVLEIASEILQTPVTAYDLYSHTSIWLLRTDFVLEYPKPVMPNMIFIGGINCHQGKPVPMEFEAYINASGEHGIVVFSLGSMVSEIPEKKAMAIADALGKIPQTVLWRYTGTRPSNLANNTILVKWLPQNDLLGHPMTRAFITHAGSHGVYESICNGVPMVMMPLFGDQMDNAKRMETKGAGVTLNVLEMTSEDLENALKAVINDKSYKENIMRLSSLHKDRPVEPLDLAVFWVEFVMRHKGAPHLRPAAHDLTWYQYHSLDVIGFLLAVVLTVAFITFKCCAYGYRKCLGKKGRVKKAHKSKTH
For B1, the Km in [3] (formation of 3-O-glucuronide) is 1.46 ± 0.32 µM; in [3] (formation of 7-O-glucuronide), 11.56 ± 2.91 µM; in data set [4] (formation of 3-O-glucuronide) it was 0.82 ± 0.08 µM; in [4] (formation of 7-O-glucuronide) it was 21.43 ± 6.09 µM; in [5] (formation of 3-O-glucuronide) it was 1.61 ± 0.14 µM; in [5] (formation of 7-O-glucuronide) it was 23.17 ± 6.96 µM. For the same molecule, the maximal velocity (Vmax) is 0.77 ± 0.04 nmol/mg/min in data set [3] (formation of 3-O-glucuronide); 1.10 ± 0.11 nmol/mg/min in data set [3] (formation of 7-O-glucuronide); 3.35 ± 0.11 nmol/mg/min in data set [4] (formation of 3-O-glucuronide); 2.46 ± 0.34 nmol/mg/min in data set [4] (formation of 7-O-glucuronide); 2.04 ± 0.07 nmol/mg/min in [5] (formation of 3-O-glucuronide); 0.44 ± 0.07 nmol/mg/min in data set [5] (formation of 7-O-glucuronide). For the same molecule, the Vmax/Km in [3] (formation of 3-O-glucuronide) is 530 µL/min/mg; in data set [3] (formation of 7-O-glucuronide) it was 100 µL/min/mg; in data set [4] (formation of 7-O-glucuronide), 110 µL/min/mg; in data set [5] (formation of 3-O-glucuronide), 1270 µL/min/mg; in data set [5] (formation of 7-O-glucuronide), 20 µL/min/mg.

B2: UGT1A1 (Homo sapiens) (protein)
chain: T2 sequence (P22309 26-533)
For B2, the Km in data set [6] was 0.13 ± 0.03 µM; in [7] (formation of 3-O-glucuronide), 0.31 ± 0.10 µM; in [7] (formation of 7-O-glucuronide), 0.51 ± 0.08 µM; in data set [8] (formation of 3-O-glucuronide) it was 1.57 ± 1.09 µM; in data set [8] (formation of 7-O-glucuronide), 1.04 ± 0.19 µM; in [9] (formation of 3-O-glucuronide), 0.30 ± 0.05 µM. In data set [9] (formation of 7-O-glucuronide), the Michaelis constant (Km) is recorded as 0.43 ± 0.10 µM. Moreover, the Vmax in [6] was determined as 1.38 ± 0.14 nmol/mg/min; in data set [7] (formation of 3-O-glucuronide), 0.82 ± 0.14 nmol/mg/min; in data set [7] (formation of 7-O-glucuronide), 4.59 ± 0.46 nmol/mg/min; in [8] (formation of 3-O-glucuronide), 1.02 ± 0.54 nmol/mg/min; in data set [8] (formation of 7-O-glucuronide), 3.04 ± 0.42 nmol/mg/min; in data set [9] (formation of 3-O-glucuronide), 0.68 ± 0.05 nmol/mg/min. Besides, the Vmax in data set [9] (formation of 7-O-glucuronide) worked out at 1.08 ± 0.13 nmol/mg/min. The Vmax/Km in [6] turned out to be 10620 µL/min/mg; in [7] (formation of 3-O-glucuronide) it was 2650 µL/min/mg; in data set [7] (formation of 7-O-glucuronide) it was 9000 µL/min/mg; in data set [8] (formation of 3-O-glucuronide), 650 µL/min/mg; in data set [8] (formation of 7-O-glucuronide), 2920 µL/min/mg; in data set [9] (formation of 3-O-glucuronide), 2270 µL/min/mg. For the same molecule, the Vmax/Km in data set [9] (formation of 7-O-glucuronide) was determined as 2520 µL/min/mg.

B3: UGT1A3 (Homo sapiens) (protein)
chain: T3 sequence (P35503 29-534)
For the molecule B3, the Michaelis-Menten constant (Km) in data set [10] is listed as 3.30 ± 3.10 µM; in data set [11] (formation of 3-O-glucuronide) it was 0.84 ± 0.18 µM; in [11] (formation of 7-O-glucuronide) it was 2.12 ± 1.24 µM; in data set [12] (formation of 3-O-glucuronide), 8.81 ± 2.72 µM; in data set [12] (formation of 7-O-glucuronide) it was 7.02 ± 3.76 µM. Also, the Vmax is 0.86 ± 0.35 nmol/mg/min in data set [10]; 0.17 ± 0.01 nmol/mg/min in data set [11] (formation of 3-O-glucuronide); 3.44 ± 0.84 nmol/mg/min in data set [11] (formation of 7-O-glucuronide); 0.18 ± 0.02 nmol/mg/min in data set [12] (formation of 3-O-glucuronide); 1.89 ± 0.36 nmol/mg/min in [12] (formation of 7-O-glucuronide). For the same molecule, the Vmax/Km stood at 260 µL/min/mg in [10]; 200 µL/min/mg in data set [11] (formation of 3-O-glucuronide); 1620 µL/min/mg in [11] (formation of 7-O-glucuronide); 20 µL/min/mg in [12] (formation of 3-O-glucuronide); 270 µL/min/mg in data set [12] (formation of 7-O-glucuronide).
